Results from patent US20190284240A1 (OHIO STATE INNOVATION FOUNDATION, published 2019).
Square brackets hold non-standard residues; d marks the D form. Pmp = N[C@@H](Cc1ccc(CP(=O)(O)O)cc1)C(=O)O; pY = N[C@@H](Cc1ccc(OP(=O)(O)O)cc1)C(=O)O; 2Nal = N[C@@H](Cc1ccc2ccccc2c1)C(=O)O

How the values were obtained:
Grb2 SH2 domain [1] = target: T1, Grb2 SH2 domain (UniProt P62993 60-152, limits assumed); assay: fluorescence anisotropy, direct binding of the FAM-labeled ligand to the Grb2 SH2 domain
T1 construct: domain: SH2 domain
T1 sequence (P62993 60-152 limits assumed): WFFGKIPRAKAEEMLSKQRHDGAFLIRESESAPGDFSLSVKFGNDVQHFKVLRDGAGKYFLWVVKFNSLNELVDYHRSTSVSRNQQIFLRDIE

Grb2 SH2 domain [2] = target: T1, Grb2 SH2 domain; assay: binding to the Grb2 SH2 domain; reference BH23
Grb2 SH2 domain [3] = target: T1, Grb2 SH2 domain; assay: binding to the Grb2 SH2 domain; assay not named, presumably the same FP competition assay
Grb2 SH2 domain [4] = target: T1, Grb2 SH2 domain; assay: FP-based competition assay, unlabeled peptide against the FAM-labeled reporter ligand on the Grb2 SH2 domain
[5] = target: T2, Kelch-like ECH-associated protein-1 (Keap1) (UniProt Q14145 321-609, limits assumed); assay: fluorescence anisotropy competition assay; reference BH15
T2 sequence (Q14145 321-609 limits assumed): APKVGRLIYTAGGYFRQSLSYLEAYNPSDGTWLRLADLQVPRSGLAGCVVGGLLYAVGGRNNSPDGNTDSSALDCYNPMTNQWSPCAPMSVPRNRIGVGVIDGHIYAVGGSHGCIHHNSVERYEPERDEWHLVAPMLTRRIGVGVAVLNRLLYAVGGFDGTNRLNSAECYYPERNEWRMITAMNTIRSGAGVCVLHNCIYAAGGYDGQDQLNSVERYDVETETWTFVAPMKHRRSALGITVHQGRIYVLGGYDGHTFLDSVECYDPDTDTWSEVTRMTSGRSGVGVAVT
Protocol: (§1) The percentage of inhibition was calculated from the fluorescence anisotropy decrease by using equation
(§2) and plotted against the inhibitor concentration.

[6] = target: T2, Kelch-like ECH-associated protein-1 …; assay: fluorescence anisotropy competition assay, displacement of the fluorescent Nrf2 peptide from Keap1
Protocol: as §1, §2

[7] = target: T2, Kelch-like ECH-associated protein-1 …; assay: fluorescence anisotropy competition assay; reference BH17
Protocol: as §1, §2

[8] = target: T2, Kelch-like ECH-associated protein-1 …; assay: fluorescence anisotropy competition assay; reference BH13
Protocol: as §1, §2

[9] = target: T2, Kelch-like ECH-associated protein-1 …; assay: fluorescence anisotropy competition assay; reference peptide not named (34-fold matches BH17, […] nM)
Protocol: as §1, §2

cyclo(AApYVNFFQ)-β-Ala-K(FAM) (peptide) was tested, and the Kd (Grb2 SH2 domain [1]) was 0.092 µM.

B1: BH26 (peptide)
peptide: cyclo(F[2Nal][dR][dP]PRR[Pmp]VN)
SMILES: CC(C)[C@@H]1NC(=O)[C@H](Cc2ccc(CP(=O)(O)O)cc2)NC(=O)[C@H](CCCNC(=N)N)NC(=O)[C@H](CCCNC(=N)N)NC(=O)[C@@H]2CCCN2C(=O)[C@H]2CCCN2C(=O)[C@@H](CCCNC(=N)N)NC(=O)[C@H](Cc2ccc3ccccc3c2)NC(=O)[C@H](Cc2ccccc2)NC(=O)[C@H](CC(N)=O)NC1=O
With B1 the “fold less potent than BH23” value (Grb2 SH2 domain [2]) was about 3 fold and the IC50 (Grb2 SH2 domain [3]) was 1.37 µM.

B2: BH23 (peptide)
peptide: cyclo(F[2Nal][dR][dP]PRR[pY]VN)
notes: also called cyclo(pY-V-N-F-Φ-r-p-P-R-R); cyclo[F-Φ-r-p-P-R-R-pY-V-N)
B2 was tested, and the IC50 (Grb2 SH2 domain [4]) was 0.4 µM.

B3: BH16 (peptide)
peptide: cyclo(FF[2Nal][dR][dP]PRRFLNAETGE)
SMILES: CC(C)C[C@@H]1NC(=O)[C@H](Cc2ccccc2)NC(=O)[C@H](CCCNC(=N)N)NC(=O)[C@H](CCCNC(=N)N)NC(=O)[C@@H]2CCCN2C(=O)[C@H]2CCCN2C(=O)[C@@H](CCCNC(=N)N)NC(=O)[C@H](Cc2ccc3ccccc3c2)NC(=O)[C@H](Cc2ccccc2)NC(=O)[C@H](Cc2ccccc2)NC(=O)[C@H](CCC(=O)O)NC(=O)CNC(=O)[C@H]([C@@H](C)O)NC(=O)[C@H](CCC(=O)O)NC(=O)[C@H](C)NC(=O)[C@H](CC(N)=O)NC1=O
notes: also called cyclo(F-F-Φ-r-p-P-R-R-F-L-N-A-E-T-G-E)
With B3 the “fold decrease in affinity vs BH15” value [5] was about 10 fold and the IC50 [6] was 1.47 µM.

B4: BH18 (peptide)
peptide: cyclo(F[2Nal][dR][dP]PRRFLNAETGE)
SMILES: CC(C)C[C@@H]1NC(=O)[C@H](Cc2ccccc2)NC(=O)[C@H](CCCNC(=N)N)NC(=O)[C@H](CCCNC(=N)N)NC(=O)[C@@H]2CCCN2C(=O)[C@H]2CCCN2C(=O)[C@@H](CCCNC(=N)N)NC(=O)[C@H](Cc2ccc3ccccc3c2)NC(=O)[C@H](Cc2ccccc2)NC(=O)[C@H](CCC(=O)O)NC(=O)CNC(=O)[C@H]([C@@H](C)O)NC(=O)[C@H](CCC(=O)O)NC(=O)[C@H](C)NC(=O)[C@H](CC(N)=O)NC1=O
notes: also called cyclo(F-Φ-r-p-P-R-R-F-L-N-A-E-T-G-E)
In the case of B4, the “fold decrease in affinity vs BH17” value [7] is reported as about 10 fold and the IC50 [6] is reported as 1.4 µM.

B5: BH25 (peptide)
peptide: cyclo(FA[dA][dP]PRR[pY]VN)
SMILES: CC(C)[C@@H]1NC(=O)[C@H](Cc2ccc(OP(=O)(O)O)cc2)NC(=O)[C@H](CCCNC(=N)N)NC(=O)[C@H](CCCNC(=N)N)NC(=O)[C@@H]2CCCN2C(=O)[C@H]2CCCN2C(=O)[C@@H](C)NC(=O)[C@H](C)NC(=O)[C@H](Cc2ccccc2)NC(=O)[C@H](CC(N)=O)NC1=O
notes: Control peptide: the Nal-arg of BH23 is replaced with Ala-ala; also called cyclo[F-A-a-p-P-R-R-pY-V-N); negative control peptide BH25
For B5, the IC50 (Grb2 SH2 domain [4]) was 0.1 µM.

B6: BH14 (peptide)
peptide: cyclo(FF[2Nal][dR][dP]PRRFQLNAETGE)
SMILES: CC(C)C[C@@H]1NC(=O)[C@H](CCC(N)=O)NC(=O)[C@H](Cc2ccccc2)NC(=O)[C@H](CCCNC(=N)N)NC(=O)[C@H](CCCNC(=N)N)NC(=O)[C@@H]2CCCN2C(=O)[C@H]2CCCN2C(=O)[C@@H](CCCNC(=N)N)NC(=O)[C@H](Cc2ccc3ccccc3c2)NC(=O)[C@H](Cc2ccccc2)NC(=O)[C@H](Cc2ccccc2)NC(=O)[C@H](CCC(=O)O)NC(=O)CNC(=O)[C@H]([C@@H](C)O)NC(=O)[C@H](CCC(=O)O)NC(=O)[C@H](C)NC(=O)[C@H](CC(N)=O)NC1=O
notes: also called cyclo(F-F-Φ-r-p-P-R-R-F-Q-L-N-A-E-T-G-E)
With B6 the “fold decrease in affinity vs BH13” value [8] was about 10 fold and the IC50 [6] was 1.4 µM.

B7: BH13 (peptide)
peptide: cyclo(FF[2Nal][dR][dP]PRRFQLDPETGE)
SMILES: CC(C)C[C@@H]1NC(=O)[C@H](CCC(N)=O)NC(=O)[C@H](Cc2ccccc2)NC(=O)[C@H](CCCNC(=N)N)NC(=O)[C@H](CCCNC(=N)N)NC(=O)[C@@H]2CCCN2C(=O)[C@H]2CCCN2C(=O)[C@@H](CCCNC(=N)N)NC(=O)[C@H](Cc2ccc3ccccc3c2)NC(=O)[C@H](Cc2ccccc2)NC(=O)[C@H](Cc2ccccc2)NC(=O)[C@H](CCC(=O)O)NC(=O)CNC(=O)[C@H]([C@@H](C)O)NC(=O)[C@H](CCC(=O)O)NC(=O)[C@@H]2CCCN2C(=O)[C@H](CC(=O)O)NC1=O
notes: The underlining is not visible, so the entry may be only part of the peptide; also called cyclo(F-F-Φ-r-p-P-R-R-F-Q-L-D-P-E-T-G-E)
B7 was tested, and the IC50 [6] was 0.153 µM.

B8: BH19 (peptide)
peptide: cyclo(F[2Nal][dR][dP]PRRFNAETGE)
SMILES: C[C@@H]1NC(=O)[C@H](CC(N)=O)NC(=O)[C@H](Cc2ccccc2)NC(=O)[C@H](CCCNC(=N)N)NC(=O)[C@H](CCCNC(=N)N)NC(=O)[C@@H]2CCCN2C(=O)[C@H]2CCCN2C(=O)[C@@H](CCCNC(=N)N)NC(=O)[C@H](Cc2ccc3ccccc3c2)NC(=O)[C@H](Cc2ccccc2)NC(=O)[C@H](CCC(=O)O)NC(=O)CNC(=O)[C@H]([C@@H](C)O)NC(=O)[C@H](CCC(=O)O)NC1=O
notes: also called cyclo(F-Φ-r-p-P-R-R-F-N-A-E-T-G-E)
B8 was tested, and the “fold reduction in inhibition potency” value [9] was 34 fold and the IC50 [6] was 5.54 µM.
